Measured values: PMC2701438
Values belong to the molecule of their own block, whether it stands above or below them.

Target: Full length LEF-1 (1-399) (human) (UniProt Q9UJU2)
UniProt Q9UJU2, sequence (Q9UJU2 whole entry): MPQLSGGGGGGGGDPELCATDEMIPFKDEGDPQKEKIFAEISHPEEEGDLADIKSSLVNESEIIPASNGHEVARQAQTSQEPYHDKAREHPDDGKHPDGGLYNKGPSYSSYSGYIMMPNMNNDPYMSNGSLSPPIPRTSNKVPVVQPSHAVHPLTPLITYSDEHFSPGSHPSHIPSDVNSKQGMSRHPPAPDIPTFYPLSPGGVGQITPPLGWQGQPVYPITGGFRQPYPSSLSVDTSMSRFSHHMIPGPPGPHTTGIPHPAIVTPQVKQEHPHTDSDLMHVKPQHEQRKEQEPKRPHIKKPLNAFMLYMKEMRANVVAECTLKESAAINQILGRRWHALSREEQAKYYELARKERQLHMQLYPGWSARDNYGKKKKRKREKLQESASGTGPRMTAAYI

repression of LEF-1•β-catenin activated TOPFlash luciferase reporter in COS-1 cells, 250 and 500 ng Groucho expression vector: 3 fold
Molecule: GST-Groucho (Drosophila), recovered as a 97 kDa protease-stable fusion protein (from UniProt P16371 1-730) (natural protein)

repression of LEF-1•β-catenin activated TOPFlash luciferase reporter in COS-1 cells: 3 fold
Molecule: human TLE-2 (from UniProt Q04725 1-743) (natural protein)

B1: human Amino-enhancer-of-split (AES) (natural protein)
chain: MMFPQSRHSGSSHLPQQLKFTTSDSCDRIKDEFQLLQAQYHSLKLECDKLASEKSEMQRHYVMYYEMSYGLNIEMHKQAEIVKRLNGICAQVLPYLSQEHQQQVLGAIERAKQVTAPELNSIIRQQLQAHQLSQLQALALPLTPLPVGLQPPSLPAVSAGTGLLSLSALGSQAHLSKEDKNGHDGDTHQEDDGEKSD
repression of LEF-1•β-catenin activated TOPFlash luciferase reporter in COS-1 cells, 250 and 500 ng AES expression vector: 3 fold
